Measurements published in patent publication US20250154242A1 (ADAFRE BIOSCIENCES, published 2025).

Molecular target: TNFR
Experiment: cell-based or functional assay

B1: cynomolgus TNFα (ligand)
chain: VRSSSRTPSDKPVAHVVANPQAEGQLQWLNRRANALVANGVELTDNQLVVPSEGLYLIYSQVLFKGQGCPSNHVLLTHTISRIAVSYQTKVNLLSAIKSPCQRETPEGAEAKPWYEPIYLGGVFQLEKGDRLSAEINLPDYLDFAESGQVYFGIIAL
modifications: biotinylated in the binding ELISA (sites not given)
- EC50, stimulation of HEK-Blue TNFα cells (SEAP reporter): 3.1 pM
